“And” between values parts separate entries of the source, which are not always exact repeats. Identical values can stand only once.
Tested on: CT26 tumors
Experiment: CT26 mouse colon carcinoma syngeneic model
Type: in vivo
Settings: CT26; groups of 10 mice; CR = tumor volume ≤25 mm^3 over at least 3 successive measurements
Experimental: BALB/c, C57BL/6, CB6F1 (C57BL/6 bred with BALB/c) and SCID mice were obtained from Charles River (Wilmington, Mass.).
EMT6, mouse mammary carcinoma and CT26, mouse colon carcinoma, cell lines were obtained from ATCC (Manassas, Va.).
Compound (I),venetoclax, was formulated in 10% ethanol+30% PEG 400+60% Phosal® 50PG. Venetoclax was administered orally once a day for 14 days at 50 mg/kg/day.
1×10^5 CT26, EMT6 or MC38 cells were subcutaneously injected with Matrigel into the flanks of BALB/c, CB6F1 or C57BL/6 mice, respectively. Seven days later, mice were randomized to treatment groups of vehicle, venetoclax, anti-PD-1/PD-L1 or the combination of venetoclax and anti-PD-1/PD-L1. Tumor volume was determined via measurements of the length (L) and width (W) of the tumor with electronic calipers and the volume was calculated according to the following equation: V=L×W2/2 using Study Director Version 2.1.11 (Studylog Systems Inc., South San Francisco). Complete response (CR) was defined as reduction in tumor volume to ≤25 mm^3 over at least 3 successive measurements.

B1: anti mu PD1 (17D2 murinized, VH2xVL1x)[mu IgG2a/k] DANA: Mouse anti-PD-1 antibody, heavy chain SEQ ID NO: 3, light chain SEQ ID NO: 4 (antibody)
heavy: QVTLKESGPGILQSSQTLSLTCTFSGFSLSTYGMGVGWIRQPSGKGLEWLTNIWWDDDKYYNSSLKNRLTVSKDTANNQVFLKFTSVDIADTATYYCGRMEWGGSFDYWGQGIMVTVSSAKTTAPSVYPLAPVCGDTTGSSVTLGCLVKGYFPEPVTLTWNSGSLSSGVHTFPAVLQSDLYTLSSSVTVTSSTWPSQSITCNVAHPASSTKVDKKIEPRGPTIKPCPPCKCPAPNLLGGPSVFIFPPKIKDVLMISLSPIVTCVVVAVSEDDPDVQISWFVNNVEVHTAQTQTHREDYASTLRVVSALPIQHQDWMSGKEFKCKVNNKDLPAPIERTISKPKGSVRAPQVYVLPPPEEEMTKKQVTLTCMVTDFMPEDIYVEWTNNGKTELNYKNTEPVLDSDGSYFMYSKLRVEKKNWVERNSYSCSVVHEGLHNHHTTKSFSRTPGK
light: DIVMTQTPVSLSVSLGGQVSISCRSSQSLEHRNGITFLSWYLQKPGQSPQLLIYKVSNRFSGISDRFSGRGSGTDFVLQINRVEPDDLGVYYCGQGTHYPLTFGSGTKLEIKRADAAPTVSIFPPSSEQLTSGGASVVCFLNNFYPKDINVKWKIDGSERQNGVLNSWTDQDSKDSTYSMSSTLTLTKDEYERHNSYTCEATHKTSTSPIVKSFNRNEC
With B1 the “complete responses (CR)” value was “did not lead to any complete responses and 0/10”.

— patent US20190336496A1, “SELECTIVE BCL-2 INHIBITORS IN COMBINATION WITH AN ANTI-PD-1 OR AN ANTI-PD-L1 ANTIBODY FOR THE TREATMENT OF CANCERS” (AbbVie Inc., priority 2018, published 2019)
